Tested on: MS2 coat protein
Experiment: apparent KD of MS2 coat protein; designed switch direction (-1 OFF switch, 1 ON switch): -1; higher = weaker reporter binding
Outline: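 The reported apparent KD is a per-design median over clusters, from curve fits of normalised cluster fluorescence. Protein titrations used SNAP-549-labelled MS2 coat protein, doubled from 0.7 or 1.5 nM to 3 µM, in Tris-HCl pH 7.5 buffer with KCl, MgCl2, BSA, DTT, tRNA and Tween-20, with no input, 200 uM small-molecule ligand, or an oligonucleotide input. The RNA switches were transcribed on Illumina chips by stalled E. coli RNA polymerase.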

[1] = input ligand: microRNA oligo, concentration not stated
[2] = Eterna round: R95, input ligand: microRNA oligo, concentration not stated

CUUGCGGACAAAGGAUAUUGCGGUGACCGGCUCGGCGUACCGAGCCUACAUGAGGAUCACCCAUGUAAGAAGGUUGACGCUGGU [JL ViennaUCT Qudice mod 4] (Eterna round: R96, puzzle: Exclusion NG 2)
apparent KD of MS2 coat protein (input ligand: FMN 200 uM): 106 nM
apparent KD of MS2 coat protein [1]: 20 nM
apparent KD of MS2 coat protein (input ligand: none): 27.6 nM

CUUGUACAUGAGGAUCACCCAUGUUAGGAUAUCUCGCCGUCGGCUUGCCGACGGUAUUAGAGAAGGGACUAGGG [JL Tixe mod 5] (puzzle: Exclusion 1)
apparent KD of MS2 coat protein [2]: 38.8 nM

CUUGUGUAAGGAUAUAUGAGUCACGGAAAUAAACCGUGAAGAUAGAAGGUACAUGAGGAUCACCCAUGUAAAAC [Mod of Anonveat 5 - Jieux - Exclusion 4] (Eterna round: R97, puzzle: Exclusion 4)
apparent KD of MS2 coat protein (input ligand: FMN 200 uM): 224 nM
apparent KD of MS2 coat protein (input ligand: none): 35.2 nM

CUUGUGUGAGGAUAUGAAUUACCUGGUCAAACAGGCUCCUGUCAGAAGGCACAUGAGGAUCACCCAUGUGGGCA [Dibilela] (Eterna round: R97, puzzle: Exclusion 4)
apparent KD of MS2 coat protein (input ligand: FMN 200 uM): 121 nM
apparent KD of MS2 coat protein (input ligand: none): 310 nM

CUUGUGUUAGGAUAUGUUAAGCCACCAACCAGUGGAUCAGGACAGAAGGAACAUGAGGAUCACCCAUGUAAAAG [Inedar] (Eterna round: R97, puzzle: Exclusion 4)
apparent KD of MS2 coat protein (input ligand: FMN 200 uM): 25.3 nM
apparent KD of MS2 coat protein (input ligand: none): 67.4 nM

CUUGUUUAAGUGAGGAUAUACUGUUAGUAAUGAUUGUAGAAGGUACAUGAGGAUCACCCAUGUUUAUUUAUAUU [JR_BME4_Sub042] (puzzle: Brourd's mod of Exclusion 4)
apparent KD of MS2 coat protein [2]: 16.4 nM

CUUGUUUAUGUAGGAUAUGCCUGGCGUGCCUUUGCAGAAGGACAUGAGGAUCACCCAUGUAACAUGAGGCUCACCCAUGUCGCG [salish99_ExNG1_r04_105] (Eterna round: R96, puzzle: Exclusion NG 1)
apparent KD of MS2 coat protein (input ligand: FMN 200 uM): 293 nM
apparent KD of MS2 coat protein [1]: 213 nM
apparent KD of MS2 coat protein (input ligand: none): 327 nM

CUUUAGCAAGCGAGAUCCCACAUGAGGAUCACCCAUGUGCAUCCAGAAUUACUGGGUGCAAAAGCUCGUCUUAUAUC [mod-Eli newdang-1b] (Eterna round: R97, puzzle: Sensor, turn-off variant 1)
apparent KD of MS2 coat protein (input ligand: FMN 200 uM): 58.4 nM
apparent KD of MS2 coat protein (input ligand: none): 62.6 nM

CUUUGCACGCUGCGGUCCUACAUGAGGAUCACCCAUGUGGUCUGGUGGCGUGGGUCGCCGGACUUGGCUCGUCUUGU [salish99_S_TOV1_R5_041] (Eterna round: R97, puzzle: Sensor, turn-off variant 1)
apparent KD of MS2 coat protein (input ligand: FMN 200 uM): 18.2 nM
apparent KD of MS2 coat protein (input ligand: none): 18.8 nM

CUUUUGUCAGGAUAUCGUGCAUACAACGAAAGUUCUAUGUGCGAGAAGGGACAUGAGGAUCACCCAUGUUACGG [Omei Ex4 A6] (Eterna round: R97, puzzle: Exclusion 4)
apparent KD of MS2 coat protein (input ligand: FMN 200 uM): 175 nM
apparent KD of MS2 coat protein (input ligand: none): 677 nM

CUUUUGUGAGGAUAUCAGUAGUAAAAAAAUAAAAUUACUUCUGAGAAGGCACAUGAGGAUCACCCAUGUUCCUC [salish99_ex4_r3_027] (puzzle: Exclusion 4)
apparent KD of MS2 coat protein [2]: 37.4 nM

CUUUUGUGAGGAUAUCAGUAGUAAAAUAAUAAAUAUACUACUGAGAAGGCACAUGAGGAUCACCCAUGUUCCUC [Mat - Exclusion 4 - Mod of Salish - D74] (puzzle: Exclusion 4)
apparent KD of MS2 coat protein [2]: 35 nM

CUUUUGUGAGGAUAUCAGUAGUAGAACAAUAGUACUACUACUGAGAAGGCACAUGAGGAUCACCCAUGUACCUC [Fiskers Ex 4 Super stable 44 mod 3] (puzzle: Exclusion 4)
apparent KD of MS2 coat protein [2]: 18.8 nM

CUUUUGUGAGGAUAUCAGUAGUAUAAAAAUAAAAUUACUACUGAGAAGGCACAUGAGGAUCACCCAUGUUCCUC [salish99_ex4_r3_017] (puzzle: Exclusion 4)
apparent KD of MS2 coat protein [2]: 37.4 nM

CUUUUGUGAGGAUAUUAGUAGUUUAUAAUUGGUGUUAUUGCUGAGAAGGCACAUGAGGAUCACCCAUGUACAAC [JR_Ex4_Sub033] (Eterna round: R97, puzzle: Exclusion 4)
apparent KD of MS2 coat protein (input ligand: FMN 200 uM): 97.9 nM
apparent KD of MS2 coat protein (input ligand: none): 37 nM

CUUUUGUGAGGAUAUUUGUAGUAAAUAAAUAAAAUUACUACUGAGAAGGCACAUGAGGAUCACCCAUGUUCCUC [salish99_ex4_r3_042] (Eterna round: R96, puzzle: Exclusion 4)
apparent KD of MS2 coat protein (input ligand: FMN 200 uM): 200 nM
apparent KD of MS2 coat protein [1]: 24.4 nM
apparent KD of MS2 coat protein (input ligand: none): 28.6 nM

CUUUUGUGAGGAUAUUUGUAGUAAAUAAAUAAAAUUACUACUGAGAAGGCACAUGAGGAUCACCCAUGUUCCUC [salish99_ex4_r3_042] (puzzle: Exclusion 4)
apparent KD of MS2 coat protein [2]: 27.7 nM

GAAAACGAAGAGGAUAUAUGAUAUCAAAGCUUCAUAGAAGGCUUCACAUGAGGAUCACCCAUGUGAUCUUCAAU [Mat - Exclusion 6 - JL Mod - D23] (Eterna round: R97, puzzle: Exclusion 6)
apparent KD of MS2 coat protein (input ligand: FMN 200 uM): 244 nM
apparent KD of MS2 coat protein (input ligand: none): 41.6 nM

GAAAACGCAGAGGAUAUUUCAGAUCAAAGCUGCAAAGAAGGCUGCACAUGAGGAUCACCCAUGUGGUCUCAAAA [Mod of Quesina 3 - Jieux - Exclusion 6] (Eterna round: R97, puzzle: Exclusion 6)
apparent KD of MS2 coat protein (input ligand: FMN 200 uM): 422 nM
apparent KD of MS2 coat protein (input ligand: none): 33.6 nM

GAAAACGCUGAGGAUAUUUCUGAUCAAAGCAGCAAAGAAGGCAGCACAUGAGGAUCACCCAUGUGGUCUUCAAG [Mat - Exclusion 6 - JL Mod - D12] (Eterna round: R97, puzzle: Exclusion 6)
apparent KD of MS2 coat protein (input ligand: FMN 200 uM): 243 nM
apparent KD of MS2 coat protein (input ligand: none): 44.7 nM

Source: the supplement of paper PMC9170038
